Reference: paper PMC3945225, “RBPJ, the Major Transcriptional Effector of Notch Signaling, Remains Associated with Chromatin throughout Mitosis, Suggesting a Role in Mitotic Bookmarking”

Molecular target: Flag-RBPJ (mouse, UniProt P31266-2 1-487)
Assay: EMSA; 1 nM DNA; 12 mM Hepes pH 7.9, 10 mM Tris-HCl pH 7.5, 60 mM KCl, 8% glycerol, 4 mM MgCl2, 0.02% NP40, 30 C; 5% PAGE 0.5x TBE
Conditions: protein: recombinant; tags: Flag; label: 32P (T4 PNK); blunt

Sequence of Flag-RBPJ (P31266 other isoform, or with tags, fused parts or gaps): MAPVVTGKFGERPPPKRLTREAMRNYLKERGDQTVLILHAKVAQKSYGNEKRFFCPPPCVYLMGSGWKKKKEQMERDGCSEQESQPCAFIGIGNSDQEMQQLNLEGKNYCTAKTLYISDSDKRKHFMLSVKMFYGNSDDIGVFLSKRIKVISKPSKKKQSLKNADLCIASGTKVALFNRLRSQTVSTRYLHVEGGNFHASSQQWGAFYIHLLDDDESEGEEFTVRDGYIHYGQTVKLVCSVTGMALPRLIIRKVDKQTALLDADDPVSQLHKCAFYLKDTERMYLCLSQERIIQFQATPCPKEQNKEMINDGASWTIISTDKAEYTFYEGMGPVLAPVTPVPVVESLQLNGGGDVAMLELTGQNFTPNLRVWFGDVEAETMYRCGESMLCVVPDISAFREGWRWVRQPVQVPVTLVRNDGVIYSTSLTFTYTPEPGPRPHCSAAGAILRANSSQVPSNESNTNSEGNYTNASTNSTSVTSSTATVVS

B1: 16 bp RBPJ motif DNA (dsDNA)
DNA 1: CACTGGGAACCTACCC
DNA 2: GGGTAGGTTCCCAGTG
B1: binds.
